The values below come from IntAct's records for PubMed 11230129.

B1: CBL-interacting serine/threonine-protein kinase 1 (Arabidopsis thaliana (Mouse-ear cress)), Q8RWC9 (parent)
chain: MVRRQEEEKKAEKGMRLGKYELGRTLGEGNFGKVKFAKDTVSGHSFAVKIIDKSRIADLNFSLQIKREIRTLKMLKHPHIVRLHEVLASKTKINMVMELVTGGELFDRIVSNGKLTETDGRKMFQQLIDGISYCHSKGVFHRDLKLENVLLDAKGHIKITDFGLSALPQHFRDDGLLHTTCGSPNYVAPEVLANRGYDGAASDIWSCGVILYVILTGCLPFDDRNLAVLYQKICKGDPPIPRWLSPGARTMIKRMLDPNPVTRITVVGIKASEWFKLEYIPSIPDDDDEEEVDTDDDAFSIQELGSEEGKGSDSPTIINAFQLIGMSSFLDLSGFFEQENVSERRIRFTSNSSAKDLLEKIETAVTEMGFSVQKKHAKLRVKQEERNQKGQVGLSVTAEVFEIKPSLNVVELRKSYGDSCLYRQLYERLLKDVGTSSPEQEIVT

This experiment covers variants of B1. The conditions noted are these: with cnbl2_arath CBL2, Q8LAS7.
Consider L332D, for which the “effect of a mutation on the interaction” value is reported as “disrupting interaction”.
As for A320P, the entry is “disrupting interaction”; as for F335P, “disrupting interaction”; as for S327L, “decreasing interaction”.
As for P315A, the entry is “decreasing interaction”.
For I324D, the “effect of a mutation on the interaction” value was “decreasing interaction”.
